Source: paper doi:10.1101/781070 (bioRxiv, 2019)

Target: the molecule itself
Experiment: crystal structure

B1: Drosophila melanogaster Noppera-bo (DmNobo), wild type (enzyme)
chain: MSQPKPILYYDERSPPVRSCLMLIKLLDIDVELRFVNLFKGEQFQKDFLALNPQHSVPTLVHGDLVLTDSHAILIHLAEKFDEGGSLWPQEHAERMKVLNLLLFECSFLFRRDSDFMSATVRQGFANVDVAHHERKLTEAYIIMERYLENSDFMAGPQLTLADLSIVTTLSTVNLMFPLSQFPRLRRWFTAMQQLDAYEANCSGLEKLRQTMESVGSFQFPSSSAVVTEKVE
stoichiometry N: 2
